Biological target: T1, ctPan2 Δ353–375 (PID deletion in full-length ctPan2) (Chaetomium thermophilum, UniProt G0SAK8 1-1170, Δ353–375)
T1 construct: Pan2, Chaetomium thermophilum, full-length context with an internal deletion of residues 353-375
T1 sequence (looked up): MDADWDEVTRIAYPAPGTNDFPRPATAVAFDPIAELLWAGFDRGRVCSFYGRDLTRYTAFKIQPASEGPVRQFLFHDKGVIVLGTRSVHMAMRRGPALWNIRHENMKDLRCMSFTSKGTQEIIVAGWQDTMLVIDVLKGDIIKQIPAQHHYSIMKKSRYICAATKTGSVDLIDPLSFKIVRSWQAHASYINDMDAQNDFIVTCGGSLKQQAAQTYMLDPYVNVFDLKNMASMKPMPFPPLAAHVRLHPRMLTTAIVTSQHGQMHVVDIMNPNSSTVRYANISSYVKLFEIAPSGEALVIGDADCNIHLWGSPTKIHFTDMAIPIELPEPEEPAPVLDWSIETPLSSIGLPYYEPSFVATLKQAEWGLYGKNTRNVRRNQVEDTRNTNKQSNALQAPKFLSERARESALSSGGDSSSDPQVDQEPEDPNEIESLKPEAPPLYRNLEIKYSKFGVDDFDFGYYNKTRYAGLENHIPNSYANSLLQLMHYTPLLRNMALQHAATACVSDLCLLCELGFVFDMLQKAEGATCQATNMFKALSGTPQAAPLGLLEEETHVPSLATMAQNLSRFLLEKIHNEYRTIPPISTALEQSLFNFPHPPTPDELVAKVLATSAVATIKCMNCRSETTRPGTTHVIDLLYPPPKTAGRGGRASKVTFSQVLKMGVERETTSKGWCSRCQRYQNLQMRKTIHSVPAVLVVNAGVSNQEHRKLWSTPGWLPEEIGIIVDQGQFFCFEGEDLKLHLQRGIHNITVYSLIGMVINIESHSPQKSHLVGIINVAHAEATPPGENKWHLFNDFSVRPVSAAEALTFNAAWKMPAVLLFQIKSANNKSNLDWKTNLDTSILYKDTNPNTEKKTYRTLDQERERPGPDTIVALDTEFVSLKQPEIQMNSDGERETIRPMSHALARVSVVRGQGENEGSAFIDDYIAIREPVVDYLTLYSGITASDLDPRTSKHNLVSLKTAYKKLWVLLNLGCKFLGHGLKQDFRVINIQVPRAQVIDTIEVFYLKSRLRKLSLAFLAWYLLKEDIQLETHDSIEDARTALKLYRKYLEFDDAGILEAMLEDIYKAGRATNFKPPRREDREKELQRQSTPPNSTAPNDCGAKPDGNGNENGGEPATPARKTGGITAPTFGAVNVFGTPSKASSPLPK
Test: SEC; separately purified ctPan2 constructs and ctPan3 PKC dimer mixed 1:1 at 1 μM, 15 min at room temperature; Superdex 200 Increase 3.2/300 in 20 mM Tris pH 8.0, 500 mM NaCl, 2 mM TCEP; fractions on SDS–PAGE
Conditions: both partners purified

B1: ctPan3 pseudokinase/C-terminal domain (PKC, residues 205–640), purified from E. coli (domain or fragment, Chaetomium thermophilum, UniProt G0S0Y3 205-640, looked up)
chain: RQELQPWQRATYDFFMPQNLREDLQKKQFATLQVIPNSGLPQLEHWHSLVPLDTSNRKNTSCFGYPSWVYKAQNSRNGRHYALRRLEGYRLTNEKAILNVMKDWKKIKNASIVTIHEVFTTREFGDSSLIFAYDFHPLSKTLQEHHFQPIHGNRYRPPPAVPENTIWGYICQIANALKTIHSNRLAARCLEPSKIILTDINRIRLSACAILDVVQFGMNSRSVVELQQEDFVKFGKLILSLATGTLPAHLNNIPAALETLGNKYSANLKSAVNWLLDTSSGETKTIEHFMTGIASQMTTFFDLALQDNDEKLFHLAREVENGRIARSLMKLLTILERGDYDGVPSWSETGDRYQLKLFRDYVFHRVDADGKPNLSIGHMLTCMSKLEAGVDENILLTSRDNETVFVLSYRELRQMYDRAFNELVKASKTGAPGANT
notes: Pan3, Chaetomium thermophilum, pseudokinase (242-497), coiled coil (499-538) and C-terminal domain (555-640), construct residues 205-640; The crystals of ctPan3 PKC alone (PDB 4CYI) were of Se-Met-labelled protein; also called ctPan3 PKC; ctPan3 PKC dimer; source: E. coli, purified (glutathione Sepharose)
- binding result: binds

From paper PMC4158885 (The EMBO Journal, 2014)
